Results: the supplement of paper PMC11246515
± gives the standard deviation of the averaged measurements.

Test: total protein half-life in vivo (active degradation + dilution); higher = more stable protein
[1] = E. coli NCM3722 delta-clpP delta-lon delta-hslV, growth: N-lim chemostat, doubling time 6 h
[2] = E. coli NCM3722 delta-clpP, growth: N-lim chemostat, doubling time 6 h
[3] = E. coli NCM3722 delta-hslV, growth: N-lim chemostat, doubling time 6 h
[4] = E. coli NCM3722 delta-lon, growth: N-lim chemostat, doubling time 6 h
[5] = E. coli NCM3722 delta-smpB, growth: N-lim chemostat, doubling time 6 h
[6] = wild type E. coli NCM3722, growth: C-lim chemostat, doubling time 3 h
[7] = wild type E. coli NCM3722, growth: C-lim chemostat, doubling time 6 h
[8] = wild type E. coli NCM3722, growth: C-lim chemostat, doubling time 12 h
[9] = wild type E. coli NCM3722, growth: N-lim chemostat, doubling time 12 h
[10] = wild type E. coli NCM3722, growth: P-lim chemostat, doubling time 6 h
[11] = wild type E. coli NCM3722, growth: P-lim chemostat, doubling time 12 h
[12] = wild type E. coli NCM3722, growth: N-lim chemostat, doubling time 6 h

Sequence | total protein half-life in vivo [1] [h] | total protein half-life in vivo [2] [h] | total protein half-life in vivo [3] [h] | total protein half-life in vivo [4] [h] | total protein half-life in vivo [5] [h] | total protein half-life in vivo [6] [h] | total protein half-life in vivo [7] [h] | total protein half-life in vivo [8] [h] | total protein half-life in vivo [9] [h] | total protein half-life in vivo [10] [h] | total protein half-life in vivo [11] [h] | total protein half-life in vivo [12] [h]
MAISTPMLVTFCVYIFGMILIGFIAWRSTKNFDDYILGGRSLGPFVTALSAGASDMSGWLLMGLPGAVFLSGISESWIAIGLTLGAWINWKLVAGRLRVHTEYNNNALTLPDYFTGRFEDKSRILRIISALVILLFFTIYCASGIVAGARLFESTFGMSYETALWAGAAATILYTFIGGFLAVSWTDTVQASLMIFALILTPVIVIISVGGFGDSLEVIKQKSIENVDMLKGLNFVAIISLMGWGLGYFGQPHILARFMAADSHHSIVHARRISMTWMILCLAGAVAVGFFGIAYFNDHPALAGAVNQNAERVFIELAQILFNPWIAGILLSAILAAVMSTLSCQLLVCSSAITEDLYKAFLRKHASQKELVWVGRVMVLVVALVAIALAANPENRVLGLVSYAWAGFGAAFGPVVLFSVMWSRMTRNGALAGMIIGALTVIVWKQFGWLGLYEIIPGFIFGSIGIVVFSLLGKAPSAAMQKRFAEADAHYHSAPPSRLQES | 5.44 ± 0.019 | 4.61 ± 0.21 | 4.68 ± 0.42 | 4.66 | 4.592 ± 0.044 | 3.51 ± 0.45 | 5.52 ± 0.072 | 9.72 ± 1.1 | 7.25 ± 1.6 | 5.18 ± 0.42 | 10.6 ± 0.28 | –
MAKHLFTSESVSEGHPDKIADQISDAVLDAILEQDPKARVACETYVKTGMVLVGGEITTSAWVDIEEITRNTVREIGYVHSDMGFDANSCAVLSAIGKQSPDINQGVDRADPLEQGAGDQGLMFGYATNETDVLMPAPITYAHRLVQRQAEVRKNGTLPWLRPDAKSQVTFQYDDGKIVGIDAVVLSTQHSEEIDQKSLQEAVMEEIIKPILPAEWLTSATKFFINPTGRFVIGGPMGDCGLTGRKIIVDTYGGMARHGGGAFSGKDPSKVDRSAAYAARYVAKNIVAAGLADRCEIQVSYAIGVAEPTSIMVETFGTEKVPSEQLTLLVREFFDLRPYGLIQMLDLLHPIYKETAAYGHFGREHFPWEKTDKAQLLRDAAGLK [P0A817] | 2.78 ± 0.62 | 2.16 ± 0.45 | 2.01 ± 0.14 | 2.41 ± 0.18 | 2.15 ± 0.17 | 2.97 ± 0.16 | 4.63 ± 0.68 | 6.86 ± 0.4 | 2.72 ± 0.053 | 5.17 ± 0.096 | 9.5 ± 0.32 | 2.1 ± 0.1
MAKNIQAIRGMNDYLPGETAIWQRIEGTLKNVLGSYGYSEIRLPIVEQTPLFKRAIGEVTDVVEKEMYTFEDRNGDSLTLRPEGTAGCVRAGIEHGLLYNQEQRLWYIGPMFRHERPQKGRYRQFHQLGCEVFGLQGPDIDAELIMLTARWWRALGISEHVTLELNSIGSLEARANYRDALVAFLEQHKEKLDEDCKRRMYTNPLRVLDSKNPEVQALLNDAPALGDYLDEESREHFAGLCKLLESAGIAYTVNQRLVRGLDYYNRTVFEWVTNSLGSQGTVCAGGRYDGLVEQLGGRATPAVGFAMGLERLVLLVQAVNPEFKADPVVDIYLVASGADTQSAAMALAERLRDELPGVKLMTNHGGGNFKKQFARADKWGARVAVVLGESEVANGTAVVKDLRSGEQTAVAQDSVAAHLRTLLG | 5.71 ± 1.3 | 5.11 ± 0.23 | 5.44 ± 0.23 | 5.45 ± 0.52 | 4.85 ± 0.12 | 3.17 ± 0.23 | 6.14 ± 0.2 | 10.5 ± 0.68 | 9.1857 ± 0.0011 | 5.98 ± 0.1 | 13.7 ± 0.34 | 4.8 ± 0.22
MAKNTSCGVQLRIRGKVQGVGFRPFVWQLAQQLNLHGDVCNDGDGVEVRLREDPETFLVQLYQHCPPLARIDSVEREPFIWSQLPTEFTIRQSTGGTMNTQIVPDAATCPACLAEMNTPGERRYRYPFINCTHCGPRFTIIRAMPYDRPFTVMAAFPLCPACDKEYRDPLDRRFHAQPVACPECGPHLEWVSHGEHAEQEAALQAAIAQLKMGKIVAIKGIGGFHLACDARNSNAVATLRARKHRPAKPLAVMLPVADGLPDAARQLLTTPAAPIVLVDKKYVPELCDDIAPDLNEVGVMLPANPLQHLLLQELQCPLVMTSGNLSGKPPAISNEQALADLQGIADGFLIHNRDIVQRMDDSVVRESGEMLRRSRGYVPDALALPPGFKNVPPVLCLGADLKNTFCLVRGEQAVLSQHLGDLSDDGIQMQWREALRLMQNIYDFTPQYVVHDAHPGYVSSQWAREMNLPTQTVLHHHAHAAACLAEHQWPLDGGDVIALTLDGIGMGENGALWGGECLRVNYRECEHLGGLPAVALPGGDLAAKQPWRNLLAQCLRFVPEWQNYSETASVQQQNWSVLARAIERGINAPLASSCGRFFDAVAAALGCAPATLSYEGEAACALEALAASCHGVTHPVTMPRVDNQLDLATFWQQWLNWQAPVNQRAWAFHDALAQGFAALMREQATMRGITTLVFSGGVIHNRLLRARLAHYLADFTLLFPQSLPAGDGGLSLGQGVIAAARWLAGEVQNG | – | – | – | – | – | – | – | 9.74 ± 2.4 | – | – | – | –
MAKNYYDITLALAGICQSARLVQQLAHQGHCDADALHVSLNSIIDMNPSSTLAVFGGSEANLRVGLETLLGVLNASSRQGLNAELTRYTLSLMVLERKLSSAKGALDTLGNRINGLQRQLEHFDLQSETLMSAMAAIYVDVISPLGPRIQVTGSPAVLQSPQVQAKVRATLLAGIRAAVLWHQVGGGRLQLMFSRNRLTTQAKQILAHLTPEL | 6.52 ± 1.1 | 5.78 ± 0.42 | 6.17 ± 0.66 | 5.23 ± 0.89 | 6 ± 0.18 | 3.36 ± 0.65 | 5.87 ± 0.23 | 12.2 ± 2.8 | 10.6 ± 0.7 | 6.04 ± 0.18 | 13.2 ± 0.51 | 5.449 ± 0.017
MAKQDYYEILGVSKTAEEREIRKAYKRLAMKYHPDRNQGDKEAEAKFKEIKEAYEVLTDSQKRAAYDQYGHAAFEQGGMGGGGFGGGADFSDIFGDVFGDIFGGGRGRQRAARGADLRYNMELTLEEAVRGVTKEIRIPTLEECDVCHGSGAKPGTQPQTCPTCHGSGQVQMRQGFFAVQQTCPHCQGRGTLIKDPCNKCHGHGRVERSKTLSVKIPAGVDTGDRIRLAGEGEAGEHGAPAGDLYVQVQVKQHPIFEREGNNLYCEVPINFAMAALGGEIEVPTLDGRVKLKVPGETQTGKLFRMRGKGVKSVRGGAQGDLLCRVVVETPVGLNERQKQLLQELQESFGGPTGEHNSPRSKSFFDGVKKFFDDLTR | – | 6.07 ± 0.65 | 4.941 ± 0.031 | 6.155 ± 0.042 | 4.51 ± 0.36 | 2.67 ± 0.034 | 4.97 ± 0.22 | 9.44 ± 0.52 | 8.73 ± 0.55 | 5.193 ± 0.045 | 11.41 ± 0.11 | 4.9 ± 0.55
MAKSLFRALVALSFLAPLWLNAAPRVITLSPANTELAFAAGITPVGVSSYSDYPPQAQKIEQVSTWQGMNLERIVALKPDLVIAWRGGNAERQVDQLASLGIKVMWVDATSIEQIANALRQLAPWSPQPDKAEQAAQSLLDQYAQLKAQYADKPKKRVFLQFGINPPFTSGKESIQNQVLEVCGGENIFKDSRVPWPQVSREQVLARSPQAIVITGGPDQIPKIKQYWGEQLKIPVIPLTSDWFERASPRIILAAQQLCNALSQVD | 3.92 ± 0.45 | 5.19 ± 0.79 | 6.42 ± 0.87 | 5.93 ± 0.48 | 5.67 ± 0.72 | – | 6.08 ± 0.89 | 4.41 ± 0.44 | 12.1 ± 1.3 | – | 12.3 ± 0.33 | 5.44 ± 0.56
MAKYNEKELADTSKFLSFVLRHKPEAIGIVLDREGWADIDKLILCAQKAGKRLTRALLDTVVATSDKKRFSYSSDGRCIRAVQGHSTSQVAISFAEKTPPQFLYHGTASRFLDEIKKQGLIAGERHYVHLSADEATARKVGARHGSPVILTVKAQEMAKRGLPFWQAENGVWLTSTVAVEFLEW | 4.33 | 1.59 | – | 2.51 | 1.27 ± 0.11 | 1.85 | 2.25 ± 0.44 | 5.97 | – | – | – | –
